This data set has as its target integrin β1 (on KYSE410 ESCC cells) (UniProt P05556). The experiment in a line: flow cytometry (cell binding). As to conditions: 0.01 M PBS, 4.5 g/L glucose, 5 mM MgCl2, 1 mg/mL BSA, 0.1 mg/mL yeast tRNA, 30 min on ice, ~1e5 cells, pH not stated.

Sequence of integrin β1 (on KYSE410 ESCC cells) (P05556 21-798): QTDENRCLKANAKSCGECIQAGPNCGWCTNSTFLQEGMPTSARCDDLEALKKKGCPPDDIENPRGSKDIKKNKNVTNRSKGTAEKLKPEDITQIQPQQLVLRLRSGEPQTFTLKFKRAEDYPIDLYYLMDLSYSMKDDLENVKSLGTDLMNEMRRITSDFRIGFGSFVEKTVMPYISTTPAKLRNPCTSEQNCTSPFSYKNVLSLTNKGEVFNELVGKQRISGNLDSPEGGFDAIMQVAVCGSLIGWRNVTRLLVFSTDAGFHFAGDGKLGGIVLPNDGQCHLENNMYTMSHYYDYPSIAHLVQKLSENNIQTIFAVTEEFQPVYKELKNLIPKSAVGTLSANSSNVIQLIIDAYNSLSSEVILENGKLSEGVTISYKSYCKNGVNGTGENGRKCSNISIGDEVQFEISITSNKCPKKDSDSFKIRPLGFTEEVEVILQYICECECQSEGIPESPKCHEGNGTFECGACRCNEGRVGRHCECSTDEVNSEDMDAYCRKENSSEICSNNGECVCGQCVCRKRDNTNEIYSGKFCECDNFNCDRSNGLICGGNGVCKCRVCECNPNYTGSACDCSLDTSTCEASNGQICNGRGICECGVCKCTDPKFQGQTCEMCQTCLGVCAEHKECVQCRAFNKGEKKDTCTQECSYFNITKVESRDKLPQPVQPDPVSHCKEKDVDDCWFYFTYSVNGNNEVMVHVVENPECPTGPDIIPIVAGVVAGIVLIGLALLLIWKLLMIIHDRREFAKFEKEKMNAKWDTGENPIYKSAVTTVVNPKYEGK

Broadly, the Kd is the concentration at which binding is half-saturated. Lower therefore signals a tighter complex. “CGCGAATGCTATCGGGGCTAAGTATCAAAATGAGC [A2(35)]” came in with a Kd of 58.1 nM.

The sequence “CGTCGTCGTCGTCGTCGTTTTCGCGAATGCTATCGGGGCTAAGTATCAAAATGAGC / ACGACGACGACGACGACGTTTCGCGAATGCTATCGGGGCTAAGTATCAAAATGAGC [BAD (bivalent aptamer-DNA carrier)]” had a Kd of 7.7 nM.
